This is an account of results in publication PMC3670934, “Milligram Production and Biological Activity Characterization of the Human Chemokine Receptor CCR3” (PLoS ONE, 2013).

The term Kd denotes the concentration at which binding is half-saturated. Lower therefore signals tighter binding. Usually koff stands for a measure of how fast the partners let go of each other. In general, kon refers to a measure of how fast the partners come together. Low values mean slow association, high ones fast association.

B3: Human chemokine receptor CCR3 with a C-terminal 10-His tag (receptor, UniProt P51677 1-355, looked up)
chain: MTTSLDTVETFGTTSYYDDVGLLCEKADTRALMAQFVPPLYSLVFTVGLLGNVVVVMILIKYRRLRIMTNIYLLNLAISDLLFLVTLPFWIHYVRGHNWVFGHGMCKLLSGFYHTGLYSEIFFIILLTIDRYLAIVHAVFALRARTVTFGVITSIVTWGLAVLAALPEFIFYETEELFEETLCSALYPEDTVYSWRHFHTLRMTIFCLVLPLLVMAICYTGIIKTLLRCPSKKKYKAIRLIFVIMAVFFIFWTPYNVAILLSSYQSILFGNDCERSKHLDLVMLVTEVIAYSHCCMNPVIYAFVGERFRKYLRHFFHRHLLMHLGRYIPFLPSEKLERTSSVSPSTAEPELSIVF
notes: human chemokine receptor CCR3; theoretical molecular weight with the tag 42 kDa; The form full length is read from the printed primers (start codon to the last codons of the gene, then tag and stop); By the reverse primer two glycine codons seem to lie between the last CCR3 residue and the ten histidines (surmised from the primer); also called hCCR3; source: also in detergent cell lysate; not …

In data set [1] the target is B3. Put plainly: SPR; Biacore T100; His-tagged hCCR3 immobilised on a Ni-activated NTA sensor chip, chemokine flowed at 30 µl/min; 25°C; 10 mM HEPES, 0.15 M NaCl, 0.1% (wt/vol) DDM, pH 7.4; hCCR3 purified in DDM; 1:1 binding model, KD = kd/ka. As to conditions: both partners purified.
Data set [2] addresses B3. The description is as above. Conditions: both partners purified. This is another data set of the same source.
Data set [3] addresses B3. As to the kind of experiment: SPR; Biacore T100; His-tagged hCCR3 immobilised on a Ni-activated NTA sensor chip, chemokine flowed at 30 µl/min; 25°C; 10 mM HEPES, 0.15 M NaCl, 0.1% (wt/vol) FC-14, pH 7.4; hCCR3 purified in FC-14; 1:1 binding model, KD = kd/ka. Conditions: both partners purified.
Data set [4] deals with the molecule itself. Put plainly: SDS-PAGE and western blot; hCCR3 after Ni affinity chromatography in FC-14; 4-12% NuPAGE Bis-Tris gel, LDS sample buffer with reducing agent, not heated; anti-His blot; bands at about 34, 58, 82 and 115 kDa.
For data set [5], the target named is B3. Put plainly: SPR; Biacore T100; His-tagged hCCR3 immobilised on a Ni-activated NTA sensor chip, chemokine flowed at 30 µl/min; 25°C; 10 mM HEPES, 0.15 M NaCl, 0.1% (wt/vol) FC-14, pH 7.4; hCCR3 purified in FC-14; 1:1 binding model, KD = kd/ka. As to conditions: both partners purified. The source holds these as a separate data set.

B1: commercial recombinant human CCL11 (PeproTech) (ligand)
chain: not shown
notes: recombinant human chemokine CCL11, bought; No catalogue number printed; probably the mature chemokine (surmised); also called CCL11 from PeproTech; commercial CCL11; source: bought: PeproTech (USA)
Take B1: in data set [1], binding was characterised by a dissociation constant (Kd) of 730 nM.

B2: CCL11 (eotaxin), home-made recombinant (ligand)
chain: not shown
notes: CCL11 (eotaxin), endogenous ligand of human CCR3; The detailed protocol is said to be submitted in a separate manuscript; Probably the mature chemokine without its signal peptide (surmised); also called eotaxin/CCL11; home-made CCL11
B2: in data set [2], binding was put at a Kd of 70 nM, the koff was 0.017 s⁻¹ and the kon is 250000 M⁻¹ s⁻¹. In data set [3], this molecule displayed a Kd of 1300 nM, an off-rate (koff) of 0.063 s⁻¹ and a kon of 49000 M⁻¹ s⁻¹.

Turning to B3, the binding result in data set [4] is “binds”.

B4: CCL24 (eotaxin-2), home-made recombinant (ligand, human, UniProt O00175 27-119, looked up)
chain: VVIPSPCCMFFVSKRIPENRVVSYQLSSRSTCLKAGVIFTTKKGQQFCGDPKQEWVQRYMKNLDAKQKKASPRARAVAVKGPVQRYPGNQTTC
notes: CCL24 (eotaxin-2), endogenous ligand of human CCR3; The detailed protocol is said to be submitted in a separate manuscript; Probably the mature chemokine without its signal peptide (surmised); also called eotaxin-2/CCL24; home-made CCL24
Take B4: the kon in data set [5] turned out to be 23000 M⁻¹ s⁻¹; in data set [2], 51000 M⁻¹ s⁻¹; in data set [3], 22000 M⁻¹ s⁻¹. For the same molecule, the Kd in data set [2] was 58 nM; in data set [3], 1600 nM. The koff in data set [2] was found to be 0.003 s⁻¹; in data set [3], 0.037 s⁻¹.

B5: commercial recombinant human CCL24 (PeproTech) (ligand, UniProt O00175 27-119, looked up)
chain: VVIPSPCCMFFVSKRIPENRVVSYQLSSRSTCLKAGVIFTTKKGQQFCGDPKQEWVQRYMKNLDAKQKKASPRARAVAVKGPVQRYPGNQTTC
notes: recombinant human chemokine CCL24, bought; No catalogue number printed; probably the mature chemokine (surmised); also called CCL24 from PeproTech; commercial CCL24; source: bought: PeproTech (USA)
In turn, B5 came in with a Kd in data set [1] of 210 nM.
